# Test results from the supplement of paper PMC9170038.
# Test system: K4 kissing-loop RNA reporter
# Assay: apparent KD of K4 kissing-loop reporter; higher = weaker reporter binding
# Settings: Eterna round: R107; input ligand: none
# Description: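 RNA-MaP round R107: designed RNA switches with theophylline, tryptophan, arginine or FMN aptamers are transcribed on-chip within common flanks. They are titrated with a labelled K4 kissing-loop RNA reporter in RNA-MaP buffer (100 mM Tris pH 7.5, 80 mM KCl, 4 mM MgCl2), without ligand or with the indicated ligand. Median apparent KD per design.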
# 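Note: bound reporter read as fluorescence of individual clusters on recovered sequencing chips by microscopy, with normalized cluster intensities fitted with a binding model.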
row,Sequence,apparent KD of K4 kissing-loop reporter [µM]
1,GAUUGUGAUGGAAACAUCGCAAUCUCUGAAGGAGCGCGUGAAAACGCAGGUAGGUCGCAGGACGACAAAGACAGUGAUGUUGUCG [Ex Arginine A K4 2],0.554
2,UCGGACCCUGGAGGAUAUGAGUCGAGUGAUGUUCGGCGGUCCAUGCUGGUGCGGCGUUAUGCCCUUUUAGAAGGCCAGGGUCCGA [#2 Exclusion - FMN B Attempt #12 (HarryS)],0.194
3,CCAUCGCUAUUCGAUACCAGUCAGGAGGUCUAUGACCUCCUAAUGGAGUGAUGUUCCUUAGACCCUUGGCAGCGAAUAGUGAUGG [#01 K4 Theophylline B Same State],0.569
4,CUCUGCUUCCCAGGGCUAGUGAUGUUAGCCCGAGGACCGGUACGGCCGCCACUCGAGUUAAGCAUCGACCGUGAAUGUUCGAAGC [theeternabot_exclusion_KL_Trp_A_48],0.139
5,UGAUAGGACAGAAGGAGCGGAAUGCUGUCCAAAAGGACAGCAAAUAUAAAAGGAGUGAUGUUCCAGGUAGGUCGCUGUCCUAUCU [ArgBX 20 #SwitchBubble #StaticStem],0.219
6,GGUAUCUAUACAGAUACCAGUCGUAUAGGUCGAUUACAGGUUAGUGAUGUUAACCUGUACGACCCUUGGCAGCUGUAUAAUAAUA [Theo B Ex t2],0.0599
7,AGGGUAAGGCGUUAACAUGACACCUGGGAAGGAGCGCGGUACACCGCAGGUAGGUCGCCCAGUGAUGUUGGGUGUAUGUAUGAGU [KL-XArg-A21],0.139
8,GUAUGUGGAAACACGUACUUAUAUCCUAGGCAGGAUAUGCGGAAACGCAGAAGGGCCACCGGCGAGAAAAUCCAGUGAUGUUGGA [Ex FMN A 7],0.244
9,CGGUUUGGUUGAGAGGUUGGGCCGAAUGAUACCAGUAUAUAAGAAUACCCUUGGCAGCAUAAGAAAGAUAUAGUGAUGUUGUAUA [SSTheophA.J],0.495
10,CGCAGUGAUGUUGCGAAUAUAAUGCAUUCAGAGGAUAUUCGUUUGGGAAGAAGGCUGAAUCGUUCUUCGAGUGAUGUUCGAGGAA [Same State FMN A GF 17],0.154
11,AGGAGCGUGGGAUGCAAAUCGCACGCUCCUCGAGGACCGGUACGGCCGCCACUCGCUCGCGCCGAGUGAUGUUCGGCCGGCGAAC [#2 Same State - Tryptophan A Attempt #14 (HarryS)],0.247
12,AUAUUGGUUGAGAGUGAUGUUCCUUGUGUUCGAGGACCGGUACGGCCGCCACUCGGGUAGAAAAUAAAAGAUGUGUUUGAUUUUU [BDazzled - #13 SS Tryptophan A],0.125
13,GUAUCGCUAGGAGGAUAUUCCAUUUUACAUAUAAAUGGAUAUGCGGAGUGAUGUUCCGAUUUACGGGAAGAAGGCCUAGUGAUAC [FMN B 20],0.219
14,UAUUGGAGUGAUGUUCCAUUAACGAUCCUACGAGGACCGGUACGGCCGCCACUCGAAAUGCAGUGAUGUUGCAGCCAGCCGUAAA [Exclusion Trptophan A GF 7],0.183
15,AAAUGUAUCUGAAGGAGCGUGAAAUAAUAUUAGACAUAAUAGCCCAGUGAUGUUGGGUUAUCACAGGUAGGUCGCAGAUGUAUAA [Same State Arginie B GF 26],0.105
16,AAUAAAAUCACGGCCGCCACUGAAUAAUUGGUAAGUAGUGAUGUUACUUUACAUAUCUUAUUUAACAGGACCGGGUGAAUAUUUA [JR_ExcTryptoB_Sub008],0.116
17,UAUGUACACGGGUAGUGGUACAUCGAGGAAGGAGCGUGCGCAGGCACAGGUAGGUCGCCUCAGCGCACGAGUGAUGUUCGUGGGC [Inares],0.306
18,CGGAGUGAUGUUCCGUUAAUUCCUUAUUUACGAGGACCGGUACGGCCGCCACUCGAUUUUGCUUUUAUUUAAUGUUUGGAAAUUU [JR_SSTryptoA_Sub007],0.269
19,AAAGGUUGAAGUGAUACCAGACUAGCAGUGAUGUUGCGCCAAAGUGAGUGAUGUUCACCAGUCCCUUGGCAGCACAUGCCUAAAG [Same State Theophylline B GF 13],1.21
20,UGUACCGAGUAAGGAUAUGUCGUCGAAAGACGAAAUGGAGUGAUGUUCCUUAAACUGCGAAAGCAGACAGAAGGUACUUGGUACU [FmnBS 29 A11+U75],0.233
21,UUUUAUUAAUACUUCUAGUGAUGUUAGAUACGAGGACCGGUACGGCCGCCACUCGCUUAUUGGUUUAUAUAUUUUUUAUUCUUUA [JR_SSTryptoA_Sub013],0.316

# Same assay, conditions: Eterna round: R107; input ligand: theophylline 20 uM
row,Sequence,apparent KD of K4 kissing-loop reporter [µM]
1,AGAUAGGGCUGAAGGAGCGUCGGAGAAGAAAAGAAGAAAUCCAGUGAUGUUGGAUAAAUCCGACAGGUAGGUCGCAGUUUUAUGA [hbob_SS_Arginine_B_2t136],0.14
2,AAGUGAUGUUGUAGUGAUGUUGUGAUGUUGCAGGAUAUAUAGUGAUGUAGAAGGGUAAGUACUGAUUUUUUUUUUGAGUGAUGUU [ccbyzrmullin],0.0539
3,UGAUUUAACUGAAGGAGCGGCAAUUGAUAAGUAAAUAUAGUGAUGUUAUAUAAGAUAGAGAGCCAGGUAGGUCGCAGAGGUAUUA [ExArgB.M],0.21
4,AACGCCACCGCGGAUACCAGAGCCAGUGAUGUUGGAUCUGGAAAUUCGUGGGUAAGCUGGCUCCCUUGGCAGCUGCGGUUCUUUU [Tiisaron],0.131
5,AUUAAUAACUGAGGAUAUCGAAAUUAUGUAGUGAUGUUACUGUAAAUUCAAAUUUUCAUUUCUUAACGAGAAGGCAGAAUAAUUA [JR_ExcFMNB_Sub012],0.2
6,GUCAACCCAGCUGAUACCAGCCGGUUACGCACAUGCACACCCAGUGAUGUUGGGUAUUAGGGCCCUUGGCAGCAGCCUCUUGGCU [theeternabot_sameState_KL_Theo_B_30],0.182
7,AUGAGGAACAGUGAUCCUACUCCAUGGGAAGGAGCGUAGGAUACUACAGGUAGGUCGCCCAGUGAUGUUGGGCGCGUGUUCUUGG [Ermaar],0.161
8,UGAUACCAGACGGCCGCCACUAGGACCGGGAGUGAUGUUCCCAAAUUAAAAUACUCGGCCGCCACUAGGACCGGGUCUGGUAUCU [TrypBX 26 #DoubleAptamer #SwitchBubble],0.36
9,AAUAAGCGUGGAAGGAGCGUCGUCCAGUGAUGUUGGAGUUAGAUACCAGUGAUGUUGGUUAGGCAGGUAGGUCGCCGCAAAGCUU [Exclusion Arginine B Gf 7],0.0863
10,CCUUCCACAGAAGGAUAUCGGAGUGAUGUUCCCAAGCAGACCUCAAAGUGGGUAGCCAGUCAGUUCCGAGAAGGUCUGCAGCGAG [theeternabot_exclusion_KL_FMN_B_26],0.37
11,AUAGGAGUGAUGUUCCUUAGUUUCUCCGAUACCAGUAUGGAAACAUACCCUUGGCAGCGGUAAACCGCAGAUUAGGAAACUAGUC [Theophylline A K4 2],0.241
12,GCUUUCCGUGCGGCCGCCACUGAUCUAAGUGAUGUUUAGAUCGCAUUCGAACCGGUUACCCAGAGCAGGACCGGGCACCAGCGCU [theeternabot_exclusion_KL_Trp_B_35],0.0901
13,UGACUGGACUGAAGGAGCGCCACGGUCAUAGACCGAAUAAGGAGUGAUGUUCCACAUAAAAGGCAGGUAGGUCGCAGUCUAGUCU [ArgBS 2 #SwitchBubble #StaticStem],0.0981
14,UGGAGUUGACGAAAAGUCAACUCCUGAGAUACCAGUGACGAAAGUCACCCUUGGCAGCUCACUGCCAGUGAUGUUGGUAUAUAAA [#OpenEnded 4],0.146
15,GCUAUGGUAGGAAGGAGCGCGGACGAUAUUUAUCGAGUGAUGUUCGAUUCAUUAAUUUGAACGCAGGUAGGUCGCCUACUAUAGC [Arginine B K4 29],0.134
16,AAGGGCCGGGCGGCCGCCACUGGUCGUGUACACGUACUAACCAGUGAUGUUGGUAUAGUACGCGACAGGACCGGGCCCGGCCCAA [Exclusion - Tryptophan B (Freestyle 30)],0.297

row,Sequence,apparent KD of K4 kissing-loop reporter [µM]
1,AUUUUUUUGUCAGGAUAUUAGUGUUGGUUUGGUUUGUUAGUGAUGUUGAUAUUUGUUUUAUGUAUUUAAGAAGGGAUUUAGAUGU [zaahullin],0.407
2,CGGAUGUAGUGAUGUUAUAUUAGAUGUAGACGAGGACCGGUACGGCCGCCACUCGUGAUGGCUGCUAGCACGUUUCGAGGUUUGC [ExTryptoA.Cp],0.438
3,UGAUACCAGACGGCCGCCACUGGGACCGGGAGUGAUGUUCCGAAAAUUAAAUGCUCGGCCGCCACUAGGACCGGGUCUGGUAUCU [TrypBX 29 #DoubleAptamer #SwitchBubble],0.231
4,UGUGUUGUAUGACGGUUUGUCACUUAGUAUUAGGAUAUAUAAACAAAUAGAAGGGAUGGCGGAGUGAUGUUCCGCCGGCCGCCAU [FMN A Exl V10],0.094
5,AGGGUAAGGCGUUAACAUGACACCUGGGAAGGAGCGCGGUACACCGCAGGUAGGUCGCCCAGUGAUGUUGGGUGAUUGUAUGAGU [KL-XArg-A24],0.15
6,GAUUGUGAUGGAAACAUCGCAAUCUCUGAAGGAGCGCGUGAAAACGCAGGUAGGUCGCAGGACGACAAAGACAGUGAUGUUGUCG [Ex Arginine A K4 2],0.504
7,UCGGACCCUGGAGGAUAUGAGUCGAGUGAUGUUCGGCGGUCCAUGCUGGUGCGGCGUUAUGCCCUUUUAGAAGGCCAGGGUCCGA [#2 Exclusion - FMN B Attempt #12 (HarryS)],0.174
8,CCAUCGCUAUUCGAUACCAGUCAGGAGGUCUAUGACCUCCUAAUGGAGUGAUGUUCCUUAGACCCUUGGCAGCGAAUAGUGAUGG [#01 K4 Theophylline B Same State],0.338
9,CUCUGCUUCCCAGGGCUAGUGAUGUUAGCCCGAGGACCGGUACGGCCGCCACUCGAGUUAAGCAUCGACCGUGAAUGUUCGAAGC [theeternabot_exclusion_KL_Trp_A_48],0.179
10,UGAUAGGACAGAAGGAGCGGAAUGCUGUCCAAAAGGACAGCAAAUAUAAAAGGAGUGAUGUUCCAGGUAGGUCGCUGUCCUAUCU [ArgBX 20 #SwitchBubble #StaticStem],0.234
11,GGUAUCUAUACAGAUACCAGUCGUAUAGGUCGAUUACAGGUUAGUGAUGUUAACCUGUACGACCCUUGGCAGCUGUAUAAUAAUA [Theo B Ex t2],0.0517
12,AGGGUAAGGCGUUAACAUGACACCUGGGAAGGAGCGCGGUACACCGCAGGUAGGUCGCCCAGUGAUGUUGGGUGUAUGUAUGAGU [KL-XArg-A21],0.154
13,GUAUGUGGAAACACGUACUUAUAUCCUAGGCAGGAUAUGCGGAAACGCAGAAGGGCCACCGGCGAGAAAAUCCAGUGAUGUUGGA [Ex FMN A 7],0.238
14,CGGUUUGGUUGAGAGGUUGGGCCGAAUGAUACCAGUAUAUAAGAAUACCCUUGGCAGCAUAAGAAAGAUAUAGUGAUGUUGUAUA [SSTheophA.J],0.513
15,CGCAGUGAUGUUGCGAAUAUAAUGCAUUCAGAGGAUAUUCGUUUGGGAAGAAGGCUGAAUCGUUCUUCGAGUGAUGUUCGAGGAA [Same State FMN A GF 17],0.136
